Results from IntAct's records for PubMed 25910212.

B1: Iodotyrosine deiodinase 1 (Homo sapiens), Q6PHW0 (parent)
chain: MYFLTPILVAILCILVVWIFKNADRSMEKKKGEPRTRAEARPWVDEDLKDSSDLHQAEEDADEWQESEENVEHIPFSHNHYPEKEMVKRSQEFYELLNKRRSVRFISNEQVPMEVIDNVIRTAGTAPSGAHTEPWTFVVVKDPDVKHKIRKIIEEEEEINYMKRMGHRWVTDLKKLRTNWIKEYLDTAPILILIFKQVHGFAANGKKKVHYYNEISVSIACGILLAALQNAGLVTVTTTPLNCGPRLRVLLGRPAHEKLLMLLPVGYPSKEATVPDLKRKPLDQIMVTV
partner: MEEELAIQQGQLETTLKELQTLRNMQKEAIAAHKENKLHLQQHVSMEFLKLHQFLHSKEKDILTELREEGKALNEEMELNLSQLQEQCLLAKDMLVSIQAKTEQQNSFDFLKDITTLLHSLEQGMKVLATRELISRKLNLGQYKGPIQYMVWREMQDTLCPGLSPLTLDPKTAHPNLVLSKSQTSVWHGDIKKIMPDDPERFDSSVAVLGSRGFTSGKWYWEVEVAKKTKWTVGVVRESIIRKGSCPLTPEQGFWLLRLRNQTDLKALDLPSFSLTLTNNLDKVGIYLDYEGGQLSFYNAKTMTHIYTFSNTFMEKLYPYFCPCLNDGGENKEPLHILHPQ
B2: Mothers against decapentaplegic homolog 3 (Homo sapiens), P84022 (parent)
chain: MSSILPFTPPIVKRLLGWKKGEQNGQEEKWCEKAVKSLVKKLKKTGQLDELEKAITTQNVNTKCITIPRSLDGRLQVSHRKGLPHVIYCRLWRWPDLHSHHELRAMELCEFAFNMKKDEVCVNPYHYQRVETPVLPPVLVPRHTEIPAEFPPLDDYSHSIPENTNFPAGIEPQSNIPETPPPGYLSEDGETSDHQMNHSMDAGSPNLSPNPMSPAHNNLDLQPVTYCEPAFWCSISYYELNQRVGETFHASQPSMTVDGFTDPSNSERFCLGLLSNVNRNAAVELTRRHIGRGVRLYYIGGEVFAECLSDSAIFVQSPNCNQRYGWHPATVCKIPPGCNLKIFNNQEFAALLAQSVNQGFEAVYQLTRMCTIRMSFVKGWGAEYRRQTVTSTPCWIELHLNGPLQWLDKVLTQMGSPSIRCSSVS
partner: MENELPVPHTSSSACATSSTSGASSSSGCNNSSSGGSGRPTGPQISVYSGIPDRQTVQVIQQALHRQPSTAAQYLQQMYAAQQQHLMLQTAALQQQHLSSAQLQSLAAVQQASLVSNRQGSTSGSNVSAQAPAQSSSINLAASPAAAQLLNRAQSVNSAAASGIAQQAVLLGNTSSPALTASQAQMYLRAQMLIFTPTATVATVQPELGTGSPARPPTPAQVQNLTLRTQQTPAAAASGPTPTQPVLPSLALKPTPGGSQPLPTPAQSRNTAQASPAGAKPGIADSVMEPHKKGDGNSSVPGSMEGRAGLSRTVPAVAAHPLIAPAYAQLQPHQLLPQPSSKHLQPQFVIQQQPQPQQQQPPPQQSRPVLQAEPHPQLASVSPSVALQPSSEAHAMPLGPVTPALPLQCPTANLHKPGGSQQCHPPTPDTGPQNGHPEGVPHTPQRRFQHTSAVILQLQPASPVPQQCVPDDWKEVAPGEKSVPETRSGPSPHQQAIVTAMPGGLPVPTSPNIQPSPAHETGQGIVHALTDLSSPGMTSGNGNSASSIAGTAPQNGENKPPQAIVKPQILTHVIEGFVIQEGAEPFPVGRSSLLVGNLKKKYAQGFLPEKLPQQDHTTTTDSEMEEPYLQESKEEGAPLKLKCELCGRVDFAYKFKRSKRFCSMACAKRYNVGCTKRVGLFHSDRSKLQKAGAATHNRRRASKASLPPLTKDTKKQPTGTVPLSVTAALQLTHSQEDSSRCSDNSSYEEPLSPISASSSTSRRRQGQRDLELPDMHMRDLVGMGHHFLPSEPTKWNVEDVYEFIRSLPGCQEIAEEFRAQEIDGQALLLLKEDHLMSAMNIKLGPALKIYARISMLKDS
B3: Adenosylhomocysteinase (Homo sapiens), P23526 (parent)
chain: MSDKLPYKVADIGLAAWGRKALDIAENEMPGLMRMRERYSASKPLKGARIAGCLHMTVETAVLIETLVTLGAEVQWSSCNIFSTQDHAAAAIAKAGIPVYAWKGETDEEYLWCIEQTLYFKDGPLNMILDDGGDLTNLIHTKYPQLLPGIRGISEETTTGVHNLYKMMANGILKVPAINVNDSVTKSKFDNLYGCRESLIDGIKRATDVMIAGKVAVVAGYGDVGKGCAQALRGFGARVIITEIDPINALQAAMEGYEVTTMDEACQEGNIFVTTTGCIDIILGRHFEQMKDDAIVCNIGHFDVEIDVKWLNENAVEKVNIKPQVDRYRLKNGRRIILLAEGRLVNLGCAMGHPSFVMSNSFTNQVMAQIELWTHPDKYPVGVHFLPKKLDEAVAEAHLGKLNVKLTKLTEKQAQYLGMSCDGPFKPDHYRY
partner: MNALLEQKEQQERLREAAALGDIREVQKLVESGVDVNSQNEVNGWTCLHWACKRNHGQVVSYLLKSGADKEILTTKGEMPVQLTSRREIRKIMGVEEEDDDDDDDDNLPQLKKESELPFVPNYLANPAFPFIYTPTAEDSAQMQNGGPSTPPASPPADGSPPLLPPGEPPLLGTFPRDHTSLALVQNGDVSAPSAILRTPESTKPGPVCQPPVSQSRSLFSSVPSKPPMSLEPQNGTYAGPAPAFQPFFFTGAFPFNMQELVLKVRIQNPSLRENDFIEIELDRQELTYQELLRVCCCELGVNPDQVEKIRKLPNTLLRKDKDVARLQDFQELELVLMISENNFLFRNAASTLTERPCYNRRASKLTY
B4: U4/U6 small nuclear ribonucleoprotein Prp31 (Homo sapiens), Q8WWY3 (parent)
chain: MSLADELLADLEEAAEEEEGGSYGEEEEEPAIEDVQEETQLDLSGDSVKTIAKLWDSKMFAEIMMKIEEYISKQAKASEVMGPVEAAPEYRVIVDANNLTVEIENELNIIHKFIRDKYSKRFPELESLVPNALDYIRTVKELGNSLDKCKNNENLQQILTNATIMVVSVTASTTQGQQLSEEELERLEEACDMALELNASKHRIYEYVESRMSFIAPNLSIIIGASTAAKIMGVAGGLTNLSKMPACNIMLLGAQRKTLSGFSSTSVLPHTGYIYHSDIVQSLPPDLRRKAARLVAAKCTLAARVDSFHESTEGKVGYELKDEIERKFDKWQEPPPVKQVKPLPAPLDGQRKKRGGRRYRKMKERLGLTEIRKQANRMSFGEIEEDAYQEDLGFSLGHLGKSGSGRVRQTQVNEATKARISKTLQRTLQKQSVVYGGKSTIRDRSSGTASSVAFTPLQGLEIVNPQAAEKKVAEANQKYFSSMAEFLKVKGEKSGLMST
partner: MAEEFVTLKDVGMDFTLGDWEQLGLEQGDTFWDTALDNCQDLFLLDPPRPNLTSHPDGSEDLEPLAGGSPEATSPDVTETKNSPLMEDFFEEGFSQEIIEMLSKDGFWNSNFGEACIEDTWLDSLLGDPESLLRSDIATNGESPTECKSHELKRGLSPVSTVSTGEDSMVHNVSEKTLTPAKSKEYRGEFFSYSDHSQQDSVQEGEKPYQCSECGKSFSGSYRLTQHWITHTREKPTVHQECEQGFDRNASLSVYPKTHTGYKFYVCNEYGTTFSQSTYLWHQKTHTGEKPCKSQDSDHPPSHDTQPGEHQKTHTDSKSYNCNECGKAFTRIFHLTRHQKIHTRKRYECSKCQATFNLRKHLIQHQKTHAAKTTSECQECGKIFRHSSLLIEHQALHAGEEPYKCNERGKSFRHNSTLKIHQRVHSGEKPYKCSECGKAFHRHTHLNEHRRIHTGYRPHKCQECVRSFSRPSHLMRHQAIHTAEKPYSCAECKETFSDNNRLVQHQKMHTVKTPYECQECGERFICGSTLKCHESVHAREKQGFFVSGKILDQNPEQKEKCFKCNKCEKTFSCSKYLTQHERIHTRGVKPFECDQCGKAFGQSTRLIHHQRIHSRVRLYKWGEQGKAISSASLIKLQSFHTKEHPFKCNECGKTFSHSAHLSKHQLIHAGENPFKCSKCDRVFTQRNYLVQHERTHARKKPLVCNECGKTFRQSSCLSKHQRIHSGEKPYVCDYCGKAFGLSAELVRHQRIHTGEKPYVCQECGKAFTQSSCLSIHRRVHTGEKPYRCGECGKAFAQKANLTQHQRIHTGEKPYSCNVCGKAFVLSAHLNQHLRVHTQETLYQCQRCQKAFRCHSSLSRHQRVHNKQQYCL
B5: Krev interaction trapped protein 1 (Homo sapiens), O00522 (parent)
chain: MGNPENIEDAYVAVIRPKNTASLNSREYRAKSYEILLHEVPIEGQKKKRKKVLLETKLQGNSEITQGILDYVVETTKPISPANQGIRGKRVVLMKKFPLDGEKMGREASLFIVPSVVKDNTKYTYTPGCPIFYCLQDIMRVCSESSTHFATLTARMLIALDKWLDERHAQSHFIPALFRPSPLERIKTNVINPAYATESGQTENSLHMGYSALEIKSKMLALEKADTCIYNPLFGSDLQYTNRVDKVVINPYFGLGAPDYSKIQIPKQEKWQRSMSSVTEDKERQWVDDFPLHRSACEGDSELLSRLLSERFSVNQLDSDHWAPIHYACWYGKVEATRILLEKGKCNPNLLNGQLSSPLHFAAGGGHAEIVQILLNHPETDRHITDQQGRSPLNICEENKQNNWEEAAKLLKEAINKPYEKVRIYRMDGSYRSVELKHGNNTTVQQIMEGMRLSQETQQYFTIWICSENLSLQLKPYHKPLQHVRDWPEILAELTNLDPQRETPQLFLRRDVRLPLEVEKQIEDPLAILILFDEARYNLLKGFYTAPDAKLITLASLLLQIVYGNYESKKHKQGFLNEENLKSIVPVTKLKSKAPHWTNRILHEYKNLSTSEGVSKEMHHLQRMFLQNCWEIPTYGAAFFTGQIFTKASPSNHKVIPVYVGVNIKGLHLLNMETKALLISLKYGCFMWQLGDTDTCFQIHSMENKMSFIVHTKQAGLVVKLLMKLNGQLMPTERNS
partner: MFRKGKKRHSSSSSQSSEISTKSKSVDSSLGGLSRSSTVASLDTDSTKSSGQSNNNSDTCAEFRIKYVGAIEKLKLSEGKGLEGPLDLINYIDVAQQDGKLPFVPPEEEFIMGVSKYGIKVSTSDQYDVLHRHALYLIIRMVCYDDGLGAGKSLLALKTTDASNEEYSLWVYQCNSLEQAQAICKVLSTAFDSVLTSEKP
B6: Plasma membrane ascorbate-dependent reductase CYBRD1 (Homo sapiens), Q53TN4 (parent)
chain: MAMEGYWRFLALLGSALLVGFLSVIFALVWVLHYREGLGWDGSALEFNWHPVLMVTGFVFIQGIAIIVYRLPWTWKCSKLLMKSIHAGLNAVAAILAIISVVAVFENHNVNNIANMYSLHSWVGLIAVICYLLQLLSGFSVFLLPWAPLSLRAFLMPIHVYSGIVIFGTVIATALMGLTEKLIFSLRDPAYSTFPPEGVFVNTLGLLILVFGALIFWIVTRPQWKRPKEPNSTILHPNGGTEQGARGSMPAYSGNNMDKSDSELNSEVAARKRNLALDEAGQRSTM

Variants of: B1
Conditions: with TRIM69, Q86WT6-2
With A220T the “effect of a mutation on the interaction” value was “with no effect”. In the case of I116T, the “effect of a mutation on the interaction” value is reported as “with no effect”.

Variants of: B2
Conditions: with PHC2, Q8IXK0-5
For I170V, the “effect of a mutation on the interaction” value was “with no effect”. In the case of N197I, the “effect of a mutation on the interaction” value is reported as “with no effect”.

Variants of: B3
Conditions: with anr40_human ANKRD40, Q6AI12
For Y143C, the “effect of a mutation on the interaction” value was “with no effect”. In the case of A89V, the “effect of a mutation on the interaction” value is reported as “disrupting interaction strength”. For D86G, the “effect of a mutation on the interaction” value was “with no effect”.

Variants of: B4
Conditions: with zn473_human ZNF473, Q8WTR7
In the case of L107V, the “effect of a mutation on the interaction” value is reported as “with no effect”.

Variants of: B5
Conditions: with itbp1_human ITGB1BP1, O14713
D137G was tested, and the “effect of a mutation on the interaction” value was “with no effect”.

Variants of: B6
Conditions: with stx4_human STX4, Q12846
Chain of stx4_human STX4, Q12846 (Q12846 whole entry): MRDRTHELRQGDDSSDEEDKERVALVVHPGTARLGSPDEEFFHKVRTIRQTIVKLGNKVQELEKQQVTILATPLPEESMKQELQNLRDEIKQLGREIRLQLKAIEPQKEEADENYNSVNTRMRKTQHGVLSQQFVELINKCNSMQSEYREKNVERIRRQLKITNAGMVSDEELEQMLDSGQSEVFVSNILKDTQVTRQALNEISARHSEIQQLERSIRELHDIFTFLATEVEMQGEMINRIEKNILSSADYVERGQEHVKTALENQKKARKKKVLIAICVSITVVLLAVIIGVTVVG
R226H was tested, and the “effect of a mutation on the interaction” value was “with no effect”.
